Experimental data taken from US20180369203.

Target: GST-tagged active human MEK1, Q02750

B1: GST-tagged inactive human ERK1 (protein)
chain: MAAAAAQGGGGGEPRRTEGVGPGVPGEVEMVKGQPFDVGPRYTQLQYIGEGAYGMVSSAYDHVRKTRVAIKKISPFEHQTYCQRTLREIQILLRFRHENVIGIRDILRASTLEAMRDVYIVQDLMETDLYKLLKSQQLSNDHICYFLYQILRGLKYIHSANVLHRDLKPSNLLINTTCDLKICDFGLARIADPEHDHTGFLTEYVATRWYRAPEIMLNSKGYTKSIDIWSVGCILAEMLSNRPIFPGKHYLDQLNHILGILGSPSQEDLNCIINMKARNYLQSLPSKTKVAWAKLFPKSDSKALDLLDRMLTFNPNKRITVEEALAHPYLEQYYDPTDEPVAEEPFTFAMELDDLPKERLKELIFQETARFQPGVLEAP
  in vitro HSF1 Ser326 phosphorylation by GST-MEK1 in the presence of inactive GST-ERK1, detected by immunoblotting: recombinant ERK1 proteins impeded in vitro HSF1 Ser326 phosphorylation by recombinant MEK1 proteins
